Paper PMC4748816 (RNA, 2016)

B1: Loqs dsRBD3, unlabeled, purified (domain or fragment, Drosophila)
chain: IDYIKLLGEIATENQFEVTYVDIEEKTFSGQFQCLVQLSTLPVGVCHGSGPTAADAQRHAAQNALEYLKIMT
B2: Loqs-3, unlabeled, purified (domain or fragment, Drosophila, UniProt Q9VJY9 368-463, looked up)
chain: HKTLKNATGKKLLKLQKTCLKNNKIDYIKLLGEIATENQFEVTYVDIEEKTFSGQFQCLVQLSTLPVGVCHGSGPTAADAQRHAAQNALEYLKIMT
B3: Loqs-3 K460E (size-exclusion chromatography) (domain or fragment, Drosophila, UniProt Q9VJY9 368-463, looked up)
chain: HKTLKNATGKKLLKLQKTCLKNNKIDYIKLLGEIATENQFEVTYVDIEEKTFSGQFQCLVQLSTLPVGVCHGSGPTAADAQRHAAQNALEYLEIMT

What was measured:
[1] = biological target: His-tagged GFP-dmDcr1 (Drosophila) (UniProt Q9VCU9); experiment: fluorescence cross-correlation spectroscopy
His-tagged GFP-dmDcr1 (Drosophila), sequence (Q9VCU9 whole entry): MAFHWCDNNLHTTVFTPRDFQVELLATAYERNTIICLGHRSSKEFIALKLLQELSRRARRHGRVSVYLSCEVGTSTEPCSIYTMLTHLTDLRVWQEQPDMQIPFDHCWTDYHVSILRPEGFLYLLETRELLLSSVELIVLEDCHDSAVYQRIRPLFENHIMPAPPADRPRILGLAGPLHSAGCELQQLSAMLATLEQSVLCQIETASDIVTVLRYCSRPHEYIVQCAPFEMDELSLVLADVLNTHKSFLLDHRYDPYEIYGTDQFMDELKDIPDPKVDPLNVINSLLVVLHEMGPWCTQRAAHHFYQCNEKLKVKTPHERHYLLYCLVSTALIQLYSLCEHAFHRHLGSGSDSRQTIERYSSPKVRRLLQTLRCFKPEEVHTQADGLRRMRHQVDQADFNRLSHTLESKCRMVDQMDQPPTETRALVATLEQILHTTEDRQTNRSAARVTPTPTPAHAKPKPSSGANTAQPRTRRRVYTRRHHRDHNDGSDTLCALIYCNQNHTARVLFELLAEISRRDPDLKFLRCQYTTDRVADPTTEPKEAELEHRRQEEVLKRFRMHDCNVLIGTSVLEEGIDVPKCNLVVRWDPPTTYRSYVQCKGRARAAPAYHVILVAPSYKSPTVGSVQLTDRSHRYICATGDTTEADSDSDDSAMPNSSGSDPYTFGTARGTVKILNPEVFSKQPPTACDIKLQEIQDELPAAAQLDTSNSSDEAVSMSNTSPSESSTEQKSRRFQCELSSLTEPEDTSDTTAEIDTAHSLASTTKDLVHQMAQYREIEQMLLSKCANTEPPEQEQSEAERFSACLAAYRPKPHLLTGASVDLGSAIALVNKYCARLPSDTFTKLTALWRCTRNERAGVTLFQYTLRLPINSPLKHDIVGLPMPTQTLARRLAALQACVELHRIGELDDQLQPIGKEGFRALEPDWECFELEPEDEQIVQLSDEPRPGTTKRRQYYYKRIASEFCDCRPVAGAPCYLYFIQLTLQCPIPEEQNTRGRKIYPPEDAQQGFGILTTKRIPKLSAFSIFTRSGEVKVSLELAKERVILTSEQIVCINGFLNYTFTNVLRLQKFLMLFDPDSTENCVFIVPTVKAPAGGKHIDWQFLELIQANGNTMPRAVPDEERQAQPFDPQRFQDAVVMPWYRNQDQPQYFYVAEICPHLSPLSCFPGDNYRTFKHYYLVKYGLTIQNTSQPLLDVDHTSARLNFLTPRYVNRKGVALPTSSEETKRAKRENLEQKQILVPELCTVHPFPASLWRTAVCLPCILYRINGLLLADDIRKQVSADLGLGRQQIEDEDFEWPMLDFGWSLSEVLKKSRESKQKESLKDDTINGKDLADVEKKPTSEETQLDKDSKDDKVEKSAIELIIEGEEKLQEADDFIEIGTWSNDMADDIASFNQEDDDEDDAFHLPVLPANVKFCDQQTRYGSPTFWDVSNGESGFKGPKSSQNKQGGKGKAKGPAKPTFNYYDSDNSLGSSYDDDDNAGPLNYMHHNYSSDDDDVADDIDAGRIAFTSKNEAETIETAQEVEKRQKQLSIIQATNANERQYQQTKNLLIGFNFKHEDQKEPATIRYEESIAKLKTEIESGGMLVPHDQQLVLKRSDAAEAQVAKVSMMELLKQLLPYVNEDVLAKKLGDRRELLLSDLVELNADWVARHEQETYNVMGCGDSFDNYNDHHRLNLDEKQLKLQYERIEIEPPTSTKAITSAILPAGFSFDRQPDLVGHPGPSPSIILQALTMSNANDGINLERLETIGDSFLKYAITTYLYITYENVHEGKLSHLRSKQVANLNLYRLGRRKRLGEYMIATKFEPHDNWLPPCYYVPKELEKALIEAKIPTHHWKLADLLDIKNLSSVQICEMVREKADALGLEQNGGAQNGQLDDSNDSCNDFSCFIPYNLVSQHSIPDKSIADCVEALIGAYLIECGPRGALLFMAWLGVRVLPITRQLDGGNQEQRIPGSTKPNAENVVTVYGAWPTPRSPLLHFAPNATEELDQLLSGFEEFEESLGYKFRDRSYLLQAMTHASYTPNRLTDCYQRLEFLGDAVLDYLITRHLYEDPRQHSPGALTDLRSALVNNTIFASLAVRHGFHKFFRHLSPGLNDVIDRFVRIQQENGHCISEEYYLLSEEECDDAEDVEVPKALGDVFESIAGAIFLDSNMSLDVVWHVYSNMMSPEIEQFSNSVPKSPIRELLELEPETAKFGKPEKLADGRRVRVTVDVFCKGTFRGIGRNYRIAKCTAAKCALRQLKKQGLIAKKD

[2] = biological target: Alexa Fluor 647-labeled Loqs-3 (Loqs-3^AF647), single-labeled dimer fraction (Drosophila) (UniProt Q9VJY9); experiment: SEC
[3] = biological target: GST-Loqs-3 (minimal linker plus dsRBD3) (Drosophila) (UniProt Q9VJY9); experiment: pull-down
[4] = biological target: His-tagged GFP-dmDcr1 (Drosophila, UniProt Q9VCU9 1-2249); experiment: fluorescence cross-correlation spectroscopy
His-tagged GFP-dmDcr1, sequence (Q9VCU9 whole entry): as above

[5] = biological target: the molecule itself; experiment: SEC

Row | Molecule | IC50 [4] [nM] | Ki [4] [nM] | also measured
1 | Alexa Fluor 647-labeled dsRBD3 (dsRDB3^AF647) (from UniProt Q9VJY9 392-463) (domain or fragment) | – | – | Kd [1]: 192 nM
2 | Alexa Fluor 647-labeled Loqs-3 (Loqs-3^AF647), single-labeled dimer fraction (from UniProt Q9VJY9 368-463) (domain or fragment) | – | – | stoichiometry N [2]: 2
3 | His-tagged dmDcr1 (Drosophila Dicer1), Q9VCU9 1-2249 | – | – | fold binding against dsRBD3 alone [3]: 10 fold
4 | B1 | 104 | 43.6 | –
5 | B2 | 9.3 | 3.6 | –
6 | B3 | – | – | binding result [5]: binds
